{
  "source": "paper PMC12323374",
  "key": {"[1]": {"tested_on": "Nsp3 Ubl1 (in N complex);N protein (in Ubl1 complex) (SARS-CoV-2;SARS-CoV-2)", "test": "EMSA"}, "Nsp3 HSUD (SARS-CoV-2)": {"tested_on": "Nsp3 HSUD (SARS-CoV-2)", "test": "EMSA"}, "[2]": {"tested_on": "Nsp3 Y domain (SARS-CoV-2)", "test": "EMSA"}, "Nsp3 ADRP (SARS-CoV-2)": {"tested_on": "Nsp3 ADRP (SARS-CoV-2)", "test": "EMSA"}, "Nsp3 NAB (SARS-CoV-2)": {"tested_on": "Nsp3 NAB (SARS-CoV-2)", "test": "EMSA"}, "[3]": {"tested_on": "Nucleocapsid (N) protein (SARS-CoV-2)", "test": "EMSA"}, "[4]": {"tested_on": "Nsp3 Ubl1 (SARS-CoV-2 (MN908947.3?))", "test": "EMSA"}, "[5]": {"target": "SARS-CoV-2 nucleocapsid (N) protein, full length (419 amino acids) (SARS-CoV-2) (UniProt P0DTC9)", "test": "SEC-RALS"}, "[6]": {"target": "SARS-CoV-2 Nsp3 ubiquitin-like 1 (Ubl1) domain, residues 1-111 (SARS-CoV-2)", "test": "crystal structure"}},
  "data": [
    {"substance": "5' UTR (1-245)", "values": [
      {"measurement": "Kd", "setting": "[1]", "result": 0.007, "unit": "µM"},
      {"measurement": "Kd", "setting": "Nsp3 HSUD (SARS-CoV-2)", "result": 41, "unit": "µM"},
      {"measurement": "Kd", "setting": "[2]", "result": 0.7, "unit": "µM"},
      {"measurement": "Kd", "setting": "Nsp3 ADRP (SARS-CoV-2)", "result": 198, "unit": "µM"},
      {"measurement": "Kd", "setting": "Nsp3 NAB (SARS-CoV-2)", "result": 204, "unit": "µM"},
      {"measurement": "Kd", "setting": "[3]", "result": 0.79, "unit": "µM"},
      {"measurement": "Kd", "setting": "[4]", "result": 31, "unit": "µM"}
    ]},
    {"substance": "His6-Nsp3 Ubl1 domain (residues 1-111) (domain or fragment)", "values": [
      {"measurement": "stoichiometry N (Ubl1 per N (4:4))", "setting": "[5]", "result": 1}
    ]},
    {"substance": "SARS-CoV-2 Nsp3 ubiquitin-like 1 (Ubl1) domain, residues 1-111 (domain or fragment)", "values": [
      {"measurement": "stoichiometry N", "setting": "[6]", "result": 2}
    ]}
  ]
}
